Experimental data as given in patent publication US20230416396A1 (Regeneron, published 2023).
Like-named read-outs stand apart in the source and are kept apart here.

Assays:
[1] = molecular target: T1, human 4-1BB on cells (human, UniProt Q07011 24-255); assay: cell-based or functional assay
[2] = molecular target: T1, human 4-1BB on cells; assay: cell-based or functional assay; remark: listed apart in the source
[3] = molecular target: T2, human CD38 endogenously expressed on MOLP8 cells (human, UniProt P28907 1-300); assay: flow cytometry on MOLP8 cells (endogenous hCD38), APC anti-human secondary
T2 construct: whole, on cells; also called hCD38
Procedure: (§1) The ability of the multispecific antigen binding molecules to bind cells was assessed using flow cytometry. Cell lines were chosen to determine the ability of both the anti-CD38 and anti-4-1BB arms to bind their targets. […] Binding was detected by using a labeled secondary antibody and measuring fluorescence on a flow cytometer.
HEK293 cells were lifted with trypsin, washed and resuspend in stain buffer (2% FBS in PBS). MOLP8 cells were washed and resuspended in stain buffer. Cells were added to wells of a 96 well V-bottom plate (3×10⁵ cells/well). A 1:4, 9-point, dose titration of test antibodies was diluted in stain buffer and added to cells to a final concentration ranging from 610 fM to 10 nM (a “no antibody” control was included as the ninth point (153fM), labeled as “secondary only”). Cells and antibodies were incubated for 30 min on ice and then washed in stain buffer. Cells were resuspended in 2 ug/ml allophycocyanin (APC) conjugated goat-anti human secondary antibody and incubated for 30 min on ice. Cells were then washed and resuspended in viability dye (according to the manufacturer's protocol) and incubated for 30 min on ice. Cells were then washed with stain buffer and resuspended in 2% PFA for 30 min on ice. After washing, cells were filtered and analyzed by flow cytometry to determine the geometric mean fluorescence intensity (gMFI), which was subsequently plotted using GraphPad Prism software. EC₅₀ values of the antibodies were determined from a 4-parameter logistic equation over a 9-point dose response curve (including secondary only control, representing the ninth point).

[4] = molecular target: T1, human 4-1BB on cells; assay: flow cytometry on HEK293/h4-1BB cells, APC anti-human secondary
Procedure: as §1
HEK293 and HEK293/4-1BB cells were lifted with trypsin, washed and resuspended in stain buffer (2% FBS in PBS) and added to wells of a 96 well V-bottom plate (3×10⁵ cells/well). A 1:5, 9-point, dose titration of test antibodies was diluted in stain buffer and added to cells to a final concentration ranging from 1.3 pM to 100 nM (a “no antibody” control was included as the ninth point ([…]) labeled as “secondary only”). Cells and antibodies were incubated for 30 min on ice and then washed in stain buffer. Cells were resuspended in 2 ug/ml allophycocyanin (APC) conjugated goat-anti human secondary antibody and incubated for 30 min on ice. Cells were then washed and resuspended in viability dye (according to the manufacturer's protocol) and incubated for 30 min on ice. Cells were then washed with stain buffer and resuspended in 2% PFA for 30 min on ice. After washing, cells were filtered and analyzed by flow cytometry to determine the geometric mean fluorescence intensity (gMFI), which was subsequently plotted using GraphPad Prism software. EC₅₀ values of the antibodies were determined from a 4-parameter logistic equation over a 9-point dose response curve (including secondary only control).

[5] = molecular target: T1, human 4-1BB on cells; assay: cell-based or functional assay; remark: listed apart in the source

T1 sequence (Q07011 24-255): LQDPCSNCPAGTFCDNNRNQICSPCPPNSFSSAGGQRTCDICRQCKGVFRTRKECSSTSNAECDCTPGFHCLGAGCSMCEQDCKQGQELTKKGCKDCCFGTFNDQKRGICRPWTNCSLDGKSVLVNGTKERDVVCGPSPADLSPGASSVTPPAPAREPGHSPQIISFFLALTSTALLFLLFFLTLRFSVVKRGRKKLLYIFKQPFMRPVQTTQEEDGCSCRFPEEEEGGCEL

B1: REGN7150 (bispecific antibody, human IgG4 S228P, kappa)
heavy 1: QVQLVQSGAEVKKPGSSVKVSCKASGGPFRSSSFSWVRQAPGQGLEWMGGIIPILGKTNYAQKFQGRITIVTDESTTTVYMELSSLRSEDTAVFYCVRGSSLFDYWGQGTLVTVSSASTKGPSVFPLAPCSRSTSESTAALGCLVKDYFPEPVTVSWNSGALTSGVHTFPAVLQSSGLYSLSSVVTVPSSSLGTKTYTCNVDHKPSNTKVDKRVESKYGPPCPPCPAPPVAGPSVFLFPPKPKDTLMISRTPEVTCVVVDVSQEDPEVQFNWYVDGVEVHNAKTKPREEQFNSTYRVVSVLTVLHQDWLNGKEYKCKVSNKGLPSSIEKTISKAKGQPREPQVYTLPPSQEEMTKNQVSLTCLVKGFYPSDIAVEWESNGQPENNYKTTPPVLDSDGSFFLYSRLTVDKSRWQEGNVFSCSVMHEALHNHYTQKSLSLSLGK
heavy 2: QVQLVQSGAEVKKPGASVKVSCKASAYTFTSYGFSWVRQAPGQGLEWMGWISTSNGYTNYAQKIQDRVTMTTDTSTSTAYMELRSLRSDDTAVYYCASLSNWVSFFDYWGQGTLVTVSSASTKGPSVFPLAPCSRSTSESTAALGCLVKDYFPEPVTVSWNSGALTSGVHTFPAVLQSSGLYSLSSVVTVPSSSLGTKTYTCNVDHKPSNTKVDKRVESKYGPPCPPCPAPPVAGPSVFLFPPKPKDTLMISRTPEVTCVVVDVSQEDPEVQFNWYVDGVEVHNAKTKPREEQFNSTYRVVSVLTVLHQDWLNGKEYKCKVSNKGLPSSIEKTISKAKGQPREPQVYTLPPSQEEMTKNQVSLTCLVKGFYPSDIAVEWESNGQPENNYKTTPPVLDSDGSFFLYSRLTVDKSRWQEGNVFSCSVMHEALHNRFTQKSLSLSPGK
light: not shown
notes: 1+1 format control, hIgG4P-PVA, common 3-20 light chain; also called CD38x4-1BB (1 + 1); 26871P2 x 25921P
For B1, the “EC50 of IFNγ release, T cells + HEK293/CD20/CD38 + REGN2281” value [1] was 780 pM, the “EC50 of IFNγ release, T cells + MOLP-8 + REGN5458” value [1] was 43.8 nM and the “MAX IFNγ release, T cells + HEK293/CD20 + REGN2281” value [1] was 1840 pg/mL. For the same binder, the “MAX IFNγ release, T cells + HEK293/CD20/CD38 + REGN2281” value [1] was 3950 pg/mL, the “MAX IFNγ release, T cells + MOLP-8 + IsoC” value [1] was 56 pg/mL and the “MAX IFNγ release, T cells + MOLP-8 + REGN5458” value [1] was 1300 pg/mL. For the same binder, the “MAX IFNγ release, T cells + NALM-6” value [1] was 620 pg/mL, the “EC50 of IL-2 release, T cells + NALM-6” value [2] was 108 pM and the “MAX IL-2 release, T cells + HEK293/CD20 + REGN2281” value [2] was 63 pg/mL. The “MAX IL-2 release, T cells + HEK293/CD20/CD38 + REGN2281” value [2] was 593 pg/mL, the “MAX IL-2 release, T cells + MOLP-8 + IsoC” value [2] was 48 pg/mL and the “MAX IL-2 release, T cells + MOLP-8 + REGN5458” value [2] was 32 pg/mL. The “MAX IL-2 release, T cells + NALM-6” value [2] was 122 pg/mL, the “MAX gMFI” value [3] was 210000 gMFI and the EC50 [4] was 2.86 nM. For the same binder, the “MAX gMFI” value [4] was 2.4e+06 gMFI, the “EC50 of IL-2 release, T cells + HEK293/CD20/CD38 + REGN1979” value [5] was about 100 pM and the “EC50 of IL-2 release, T cells + MOLP-8 + REGN5458” value [5] was 63.4 nM. For the same binder, the “MAX IL-2 release, T cells + HEK293/CD20 + REGN1979” value [5] was 182 pg/mL, the “MAX IL-2 release, T cells + HEK293/CD20/CD38 + IsoC” value [5] was 12 pg/mL and the “MAX IL-2 release, T cells + HEK293/CD20/CD38 + REGN1979” value [5] was 1300 pg/mL. The “MAX IL-2 release, T cells + MOLP-8 + IsoC” value [5] was 163 pg/mL and the “MAX IL-2 release, T cells + MOLP-8 + REGN5458” value [5] was 308 pg/mL.
